According to publication PMC10649420, “Expression Patterns and Functional Analysis of Three SmTAT Genes Encoding Tyrosine Aminotransferases in Salvia miltiorrhiza” (International Journal of Molecular Sciences, 2023):

Legend:
Experiment in all cases: aminotransferase assay, product absorbance, microplate reader
Format in all cases: biochemical, Salvia miltiorrhiza
SmTAT3 = conditions: 100 μM PLP, 30 °C, 30 min, 20 μg/mL enzyme
From the text: aminotransferase assay, product absorbance, microplate reader on SmTAT3

[1] = substrate: N[C@@H](Cc1ccc(O)cc1)C(=O)O; conditions: 10 mM alpha-ketoglutarate, 100 μM PLP, 30 °C, 30 min, 20 μg/mL enzyme
From the text: (§1) aminotransferase assay, product absorbance, microplate reader on SmTAT2

[2] = substrate: O=C(O)C(=O)Cc1ccc(O)cc1; conditions: 10 mM glutamate, 100 μM PLP, 30 °C, 30 min, 20 μg/mL enzyme, reverse reaction
From the text: as §1

[3] = substrate: N[C@@H](Cc1ccccc1)C(=O)O; conditions: 10 mM alpha-ketoglutarate, 100 μM PLP, 30 °C, 30 min, 20 μg/mL enzyme
From the text: as §1

[4] = substrate: O=C(O)C(=O)Cc1ccccc1; conditions: 10 mM glutamate, 100 μM PLP, 30 °C, 30 min, 20 μg/mL enzyme, reverse reaction
From the text: as §1

[5] = substrate: N[C@@H](Cc1ccc(O)cc1)C(=O)O; conditions: 10 mM alpha-ketoglutarate, 100 μM PLP, 30 °C, 30 min, 1 μg/mL enzyme
From the text: (§2) aminotransferase assay, product absorbance, microplate reader on SmTAT1

[6] = substrate: O=C(O)C(=O)Cc1ccc(O)cc1; conditions: 10 mM glutamate, 100 μM PLP, 30 °C, 30 min, 1 μg/mL enzyme, reverse reaction
From the text: as §2

[7] = substrate: N[C@@H](Cc1ccccc1)C(=O)O; conditions: 10 mM alpha-ketoglutarate, 100 μM PLP, 30 °C, 30 min, 1 μg/mL enzyme
From the text: as §2

[8] = substrate: O=C(O)C(=O)Cc1ccccc1; conditions: 10 mM glutamate, 100 μM PLP, 30 °C, 30 min, 1 μg/mL enzyme, reverse reaction
From the text: as §2

[9] = 10 mM glutamate, reverse reaction

`O=C(O)C(=O)Cc1ccc(O)cc1` [4-hydroxyphenylpyruvate] was tested, and the Km (SmTAT3; [9]) was 2.22 ± 0.22 mM.

`N[C@@H](Cc1ccc(O)cc1)C(=O)O` [tyrosine] showed a Km (SmTAT3; 10 mM alpha-ketoglutarate) of 2.73 ± 1.61 mM.

`N[C@@H](Cc1ccccc1)C(=O)O` [phenylalanine] was tested, and the Km (SmTAT3; 10 mM alpha-ketoglutarate) was 5.47 ± 3.23 mM.

Work on `O=C(O)C(=O)Cc1ccccc1` [phenylpyruvate] yielded a Km (SmTAT3; [9]) of 3.91 ± 2.01 mM.

B1: SmTAT2 (Salvia miltiorrhiza) (protein)
chain: MPNSTERERERELSMENGGSAAARWRFEGNERLILAGGVTVRGVLNTVIGNLDGNDTRPVIPLGHGDPSAFPSFRTSPFAEDAVCSAVRSTKFNGYSSTVGIPAARSAVAEYLSKDLPYKLSPDDVFLTIGCTQALEAVVTVLARPGANLLLPRPGFPYYEARAGFCSLEFRHFDLLPEQDWEVDLASVEALADENTVAMVIINPGNPCGNVFKYEHLKKVAETARKLGILVISDEVYDHLTFGSNPFVPMGVFASIAPILTLGSISKRWIVPGWRLGWLVTNDPDGILTKQGIVDSIKGFLNISADPATFMQGAVPQILENTPSDFFQKIVSTLRETADICYERSKEIPCITCPSRPEGSMFAMVKLNLSLLEGIEDDMDFCCKLAKEESVILLPGFAVGLKNWLRVTFAIEPSSLDDGFLRIKAFHQRHAKKQ
B1 showed a Km [1] of 3.47 ± 1.69 mM, a Vmax [1] of 0.0486 µmol/min/mg and a kcat [1] of 0.15 ± 0.03 s⁻¹. It also gave a kcat/Km [1] of 60 ± 40 M⁻¹ s⁻¹, a Km [2] of 0.48 ± 0.16 mM and a Vmax [2] of 0.448 µmol/min/mg. It also gave a kcat [2] of 1.35 ± 0.08 s⁻¹, a kcat/Km [2] of 3230 ± 1240 M⁻¹ s⁻¹ and a Km [3] of 6.93 ± 3.39 mM. It also gave a Vmax [3] of 0.109 µmol/min/mg, a Km [4] of 3.94 ± 0.99 mM and a Vmax [4] of 0.057 µmol/min/mg. For the same molecule, the kcat [4] was 0.17 ± 0.02 s⁻¹ and the kcat/Km [4] was 50 ± 20 M⁻¹ s⁻¹.

B2: SmTAT1 (Salvia miltiorrhiza) (protein)
chain: MELQNPAQEIDAPTTITIKGILGLLMSSTDPKESGKRVISLGIGDPTAYSCFHASNAAQEGVVEALRSTKFNGYAPTAGLPQTREAIAEYLSRDLPYKLPADSVYVTAGCTQAIEIALSVLARPGANILLPRPCFPIYGLCASFRNIEVRYFDLHPEQGWEVDLDAVADLADHNTVAMVIINPGNPCGNVYSYQHLKKIAETAKRLGIVVIADEVYGHLAFGANPFVPMGIFGSIAPVVTLGSLSKRWLVPGWRLGWLVINDPDGSLMSPKFVERIKKYCDICGGPATFIQAAVPEIVEQTQEVFFRKTINILKQTSDICYQKIEDINGITCPTKPKGAMAFMVKLNLSRMKDISDDIDFCFKLAKEESVIILPGLAVGLKNWIRITFAVDVPALEEAMERLKSFCERHSY
notes: full ORF 1236 bp (about 411 residues) with GST tag (pGEX-4T-1), soluble from E. coli Arctic Express (DE3)
B2 gave a Km [5] of 0.31 ± 0.11 mM, a Vmax [5] of 6.88 µmol/min/mg and a kcat [5] of 19.8 ± 0.93 s⁻¹. The kcat/Km [5] was 74400 ± 29400 M⁻¹ s⁻¹, the Km [6] was 2.77 ± 0.52 mM and the Vmax [6] was 3.19 µmol/min/mg. It also gave a kcat [6] of 9.21 ± 0.78 s⁻¹, a kcat/Km [6] of 3500 ± 940 M⁻¹ s⁻¹ and a Km [7] of 3.08 ± 0.99 mM. The Vmax [7] was 4.36 µmol/min/mg, the kcat [7] was 12.6 ± 1.43 s⁻¹ and the kcat/Km [7] was 4680 ± 2020 M⁻¹ s⁻¹. The Km [8] was 0.71 ± 0.21 mM, the Vmax [8] was 3.63 µmol/min/mg and the kcat [8] was 10.4 ± 0.39 s⁻¹. For the same molecule, the kcat/Km [8] was 16300 ± 4620 M⁻¹ s⁻¹.
